Data on 6 sequences can be found in the supplement of paper PMC5998384.

In data set [1] the test system is HeLa Kyoto. As to the kind of experiment: thermal stability score vs G1/S (z-score of summed log2 fold changes over temperatures); higher = more thermally stable than in G1/S.
The subject of data set [2] is HeLa Kyoto. As to the kind of experiment: solubility change mitosis vs G1/S (difference of NP-40 vs SDS log2 ratios) (log2 ratio difference); higher = more soluble in mitosis.
For data set [3], the system named is HeLa Kyoto. Nature of the data set: melting temperature (median over replicates), in situ; higher = more thermally stable.
Data set [4] relates to HeLa Kyoto. Nature of the data set: solubility in G1/S (NP-40 vs SDS abundance) (log2 ratio); higher = more soluble. Particulars: cell cycle stage: G1/S.
Where [5] appears, read: cell cycle stage: early G1 (4.5 h after nocodazole release).
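Wherever melting temperature (median over replicates), in situ is given: HeLa Kyoto cells synchronized by double thymidine or nocodazole block, proteins quantified by TMT10plex mass spectrometry, three independent biological replicates.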
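Wherever solubility change mitosis vs G1/S (difference of NP-40 vs SDS log2 ratios) is given: synchronized HeLa Kyoto cells (double thymidine block for G1/S, nocodazole release for mitosis), protein amounts in NP-40 versus SDS lysates quantified by mass spectrometry, three biological replicates.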
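Wherever solubility in G1/S (NP-40 vs SDS abundance) is given: HeLa Kyoto cells arrested at G1/S by double thymidine block, proteins quantified by TMT10plex mass spectrometry in mild NP-40 versus SDS extracts, three biological replicates.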
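Wherever thermal stability score vs G1/S (z-score of summed log2 fold changes over temperatures) is given: synchronized HeLa Kyoto cells, proteins quantified by TMT10plex mass spectrometry, three biological replicates, mitosis taken 0.5 h after nocodazole release, G1/S directly after double thymidine block.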

For “MASQPNSSAKKKEEKGKNIQVVVRCRPFNLAERKASAHSIVECDPVRKEVSVRTGGLADKSSRKTYTFDMVFGASTKQIDVYRSVVCPILDEVIMGYNCTIFAYGQTGTGKTFTMEGERSPNEEYTWEEDPLAGIIPRTLHQIFEKLTDNGTEFSVKVSLLEIYNEELFDLLNPSSDVSERLQMFDDPRNKRGVIIKGLEEITVHNKDEVYQILEKGAAKRTTAATLMNAYSSRSHSVFSVTIHMKETTIDGEELVKIGKLNLVDLAGSENIGRSGAVDKRAREAGNINQSLLTLGRVITALVERTPHVPYRESKLTRILQDSLGGRTRTSIIATISPASLNLEETLSTLEYAHRAKNILNKPEVNQKLTKKALIKEYTEEIERLKRDLAAAREKNGVYISEENFRVMSGKLTVQEEQIVELIEKIGAVEEELNRVTELFMDNKNELDQCKSDLQNKTQELETTQKHLQETKLQLVKEEYITSALESTEEKLHDAASKLLNTVEETTKDVSGLHSKLDRKKAVDQHNAEAQDIFGKNLNSLFNNMEELIKDGSSKQKAMLEVHKTLFGNLLSSSVSALDTITTVALGSLTSIPENVSTHVSQIFNMILKEQSLAAESKTVLQELINVLKTDLLSSLEMILSPTVVSILKINSQLKHIFKTSLTVADKIEDQKKELDGFLSILCNNLHELQENTICSLVESQKQCGNLTEDLKTIKQTHSQELCKLMNLWTERFCALEEKCENIQKPLSSVQENIQQKSKDIVNKMTFHSQKFCADSDGFSQELRNFNQEGTKLVEESVKHSDKLNGNLEKISQETEQRCESLNTRTVYFSEQWVSSLNEREQELHNLLEVVSQCCEASSSDITEKSDGRKAAHEKQHNIFLDQMTIDEDKLIAQNLELNETIKIGLTKLNCFLEQDLKLDIPTGTTPQRKSYLYPSTLVRTEPREHLLDQLKRKQPELLMMLNCSENNKEETIPDVDVEEAVLGQYTEEPLSQEPSVDAGVDCSSIGGVPFFQHKKSHGKDKENRGINTLERSKVEETTEHLVTKSRLPLRAQINL [KIF11]”, the thermal stability score in the data set with HeLa Kyoto [1] (setting [5]) worked out at 6; with HeLa Kyoto [1] (cell cycle stage: mitosis), 5.17. For the same sequence, in the data set on HeLa Kyoto [2], the “solubility change mitosis (log2)” value is -0.143. Further, the values for the melting temperature in the data set on HeLa Kyoto [3] (cell cycle stage: G1/S) and with HeLa Kyoto [3] (cell cycle stage: mitosis) were 48.2 °C and 49 °C, respectively. Further, the “solubility in G1/S (log2)” value with HeLa Kyoto [4] was -0.0398.
On to “MASSNTVLMRLVASAYSIAQKAGMIVRRVIAEGDLGIVEKTCATDLQTKADRLAQMSICSSLARKFPKLTIIGEEDLPSEEVDQELIEDSQWEEILKQPCPSQYSAIKEEDLVVWVDPLDGTKEYTEGLLDNVTVLIGIAYEGKAIAGVINQPYYNYEAGPDAVLGRTIWGVLGLGAFGFQLKEVPAGKHIITTTRSHSNKLVTDCVAAMNPDAVLRVGGAGNKIIQLIEGKASAYVFASPGCKKWDTCAPEVILHAVGGKLTDIHGNVLQYHKDVKHMNSAGVLATLRNYDYYASRVPESIKNALVP [BPNT1]”, for which the thermal stability score is -0.366 with HeLa Kyoto [1] (setting [5]) and -1.21 in the data set on HeLa Kyoto [1] (cell cycle stage: mitosis). For the same sequence, in the data set with HeLa Kyoto [2], the “solubility change mitosis (log2)” value is -0.0215. Besides, the melting temperature was found to be 57.5 °C in the data set with HeLa Kyoto [3] (cell cycle stage: G1/S) and 57.9 °C in the data set on HeLa Kyoto [3] (cell cycle stage: mitosis). In addition, the “solubility in G1/S (log2)” value in the data set with HeLa Kyoto [4] came out at 0.211.
Regarding “MASSRASSTQATKTKAPDDLVAPVVKKPHIYYGSLEEKERERLAKGESGILGKDGLKAGIEAGNINITSGEVFEIEEHISERQAEVLAEFERRKRARQINVSTDDSEVKACLRALGEPITLFGEGPAERRERLRNILSVVGTDALKKTKKDDEKSKKSKEEYQQTWYHEGPNSLKVARLWIANYSLPRAMKRLEEARLHKEIPETTRTSQMQELHKSLRSLNNFCSQIGDDRPISYCHFSPNSKMLATACWSGLCKLWSVPDCNLLHTLRGHNTNVGAIVFHPKSTVSLDPKDVNLASCAADGSVKLWSLDSDEPVADIEGHTVRVARVMWHPSGRFLGTTCYDRSWRLWDLEAQEEILHQEGHSMGVYDIAFHQDGSLAGTGGLDAFGRVWDLRTGRCIMFLEGHLKEIYGINFSPNGYHIATGSGDNTCKVWDLRQRRCVYTIPAHQNLVTGVKFEPIHGNFLLTGAYDNTAKIWTHPGWSPLKTLAGHEGKVMGLDISSDGQLIATCSYDRTFKLWMAE [PRPF4]”, the thermal stability score in the data set with HeLa Kyoto [1] (setting [5]) was -0.546; in the data set with HeLa Kyoto [1] (cell cycle stage: mitosis) it was -0.96. The “solubility change mitosis (log2)” value in the data set with HeLa Kyoto [2] is 0.223. Also, the melting temperature with HeLa Kyoto [3] (cell cycle stage: G1/S) is 49.9 °C; with HeLa Kyoto [3] (cell cycle stage: mitosis), 49.5 °C. For the same sequence, the “solubility in G1/S (log2)” value in the data set with HeLa Kyoto [4] was -0.454.
For the sequence “MASSSGNDDDLTIPRAAINKMIKETLPNVRVANDARELVVNCCTEFIHLISSEANEICNKSEKKTISPEHVIQALESLGFGSYISEVKEVLQECKTVALKRRKASSRLENLGIPEEELLRQQQELFAKARQQQAELAQQEWLQMQQAAQQAQLAAASASASNQAGSSQDEEDDDDI [DR1]”, the results for the thermal stability score in the data set with HeLa Kyoto [1] (setting [5]) and with HeLa Kyoto [1] (cell cycle stage: mitosis) were -1.34 and -0.438, respectively. For the same sequence, the “solubility change mitosis (log2)” value in the data set with HeLa Kyoto [2] amounted to 0.91. The melting temperature in the data set with HeLa Kyoto [3] (cell cycle stage: G1/S) worked out at 58.2 °C; in the data set with HeLa Kyoto [3] (cell cycle stage: mitosis), 52.7 °C. Also, in the data set on HeLa Kyoto [4], the “solubility in G1/S (log2)” value was -0.174.
Consider “MASSSGSKAEFIVGGKYKLVRKIGSGSFGDIYLAINITNGEEVAVKLESQKARHPQLLYESKLYKILQGGVGIPHIRWYGQEKDYNVLVMDLLGPSLEDLFNFCSRRFTMKTVLMLADQMISRIEYVHTKNFIHRDIKPDNFLMGIGRHCNKLFLIDFGLAKKYRDNRTRQHIPYREDKNLTGTARYASINAHLGIEQSRRDDMESLGYVLMYFNRTSLPWQGLKAATKKQKYEKISEKKMSTPVEVLCKGFPAEFAMYLNYCRGLRFEEAPDYMYLRQLFRILFRTLNHQYDYTFDWTMLKQKAAQQAASSSGQGQQAQTPTGKQTDKTKSNMKGF [CSNK1A1]”, for which the values for the thermal stability score in the data set on HeLa Kyoto [1] (setting [5]) and in the data set on HeLa Kyoto [1] (cell cycle stage: mitosis) were 1.17 and 1.69, respectively. Besides, the “solubility change mitosis (log2)” value in the data set with HeLa Kyoto [2] was -0.0146. The melting temperature was determined as 49.6 °C with HeLa Kyoto [3] (cell cycle stage: G1/S) and 50.2 °C in the data set on HeLa Kyoto [3] (cell cycle stage: mitosis). Moreover, the “solubility in G1/S (log2)” value with HeLa Kyoto [4] is -0.00541.
With “MASSSVPPATVSAATAGPGPGFGFASKTKKKHFVQQKVKVFRAADPLVGVFLWGVAHSINELSQVPPPVMLLPDDFKASSKIKVNNHLFHRENLPSHFKFKEYCPQVFRNLRDRFGIDDQDYLVSLTRNPPSESEGSDGRFLISYDRTLVIKEVSSEDIADMHSNLSNYHQYIVKCHGNTLLPQFLGMYRVSVDNEDSYMLVMRNMFSHRLPVHRKYDLKGSLVSREASDKEKVKELPTLKDMDFLNKNQKVYIGEEEKKIFLEKLKRDVEFLVQLKIMDYSLLLGIHDIIRGSEPEEEAPVREDESEVDGDCSLTGPPALVGSYGTSPEGIGGYIHSHRPLGPGEFESFIDVYAIRSAEGAPQKEVYFMGLIDILTQYDAKKKAAHAAKTVKHGAGAEISTVHPEQYAKRFLDFITNIFA [PIP4K2C]”, the thermal stability score in the data set on HeLa Kyoto [1] (setting [5]) was determined as 0.688; in the data set with HeLa Kyoto [1] (cell cycle stage: mitosis), 2. Moreover, in the data set with HeLa Kyoto [2], the “solubility change mitosis (log2)” value was -0.07. The values for the melting temperature in the data set on HeLa Kyoto [3] (cell cycle stage: G1/S) and with HeLa Kyoto [3] (cell cycle stage: mitosis) were 49 °C and 48.7 °C, respectively. Besides, in the data set on HeLa Kyoto [4], the “solubility in G1/S (log2)” value amounted to 0.315.
